According to patent US20170014527A1:
pKd: −log10 of the molar value.

How the values were obtained:
human Trop-2 (human) [1] = biological target: human Trop-2 (human) (UniProt P09758); assay: cell binding on NCI-N87 cells, anti-mouse-HRP, luminescence
human Trop-2 (human) [2] = biological target: human Trop-2 (human) (UniProt P09758); assay: cell binding on NCI-N87 cells, 0.03 to 66 nM antibody, anti-mouse-HRP, luminescence
human Trop-2 (human) [3] = biological target: human Trop-2 (human) (UniProt P09758); assay: cell binding on NCI-N87 cells, Bmax against murine RS7 as reference
human Trop-2 (human) [4] = biological target: human Trop-2 (human) (UniProt P09758); assay: cell binding assay, cell line not stated
human Trop-2 (human) [5] = biological target: human Trop-2 (human) (UniProt P09758); assay: cell-based or functional assay

Chain of human Trop-2 (human) (P09758 27-323): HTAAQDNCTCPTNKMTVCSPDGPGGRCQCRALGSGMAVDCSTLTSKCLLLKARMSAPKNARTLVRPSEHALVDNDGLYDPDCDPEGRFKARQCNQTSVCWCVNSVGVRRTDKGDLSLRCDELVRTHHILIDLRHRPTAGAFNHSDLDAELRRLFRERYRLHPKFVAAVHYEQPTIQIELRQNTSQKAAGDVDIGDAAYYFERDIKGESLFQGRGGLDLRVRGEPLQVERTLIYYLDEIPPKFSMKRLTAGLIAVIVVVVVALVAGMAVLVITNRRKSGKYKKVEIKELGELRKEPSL

Substance	maximum binding (Bmax) (relative luminescent units) (human Trop-2 (human) [1])	pKd (human Trop-2 (human) [2])	reduction of maximum binding (Bmax) compared to RS7 (human Trop-2 (human) [3])	pKd (human Trop-2 (human) [4])	ADCC, specific lysis of BxPC-3 cells by PBMCs (effector to target 100:1, antibody 33.3 nM) (human Trop-2 (human) [5])
162-46.2 murine monoclonal antibody against human Trop-2	8470	9.28	25%	–	–
MAB650 murine monoclonal antibody against human Trop-2 (R&D Systems)	6020	9.31	50%	–	–
hRS7-CL2-SN-38 (hRS7 IgG conjugated to SN-38 by the CL2 linker) (antibody)	–	–	–	8.92	–
hRS7-CL2A-SN-38 (hRS7 IgG conjugated to SN-38 by the CL2A linker) (antibody)	–	–	–	8.92	–
humanized RS7 (hRS7) anti-Trop-2 antibody, unconjugated IgG	–	–	–	–	8.5%
